Test results as given in article doi:10.1101/2025.06.14.659678, “NanoBondy reacting through NeissLock anhydride allows covalent immune cell decoration” (bioRxiv, 2025).

Legend:
[1] = molecular target: T1, endogenous human CD45 at the cell-surface (Homo sapiens, UniProt P08575-4); assay: flow cytometry on cells; nanobodies incubated with YTS or NK92 cells (CD45+) or Expi293F cells (CD45-); detected with anti-VHH-Alexa Fluor 647; conditions: one partner purified
T1 construct: human CD45 as expressed on NK cell-lines and CD8+ T cells; also called endogenous CD45; source: endogenous, on YTS and NK92 cells and on primary human CD8+ T cells

[2] = molecular target: T2, recombinant fragment of the d1 and d2 domains of human CD45 linked to an AviTag (Homo sapiens, biotin (site-specific, on the AviTag)); assay: ELISA; nanobodies coated on a plate, incubated with the indicated concentration of biotinylated CD45d1d2; colorimetric detection, absorbance at 450 nm; conditions: both partners purified
T2 construct: human CD45, extracellular domains d1 and d2; Glycosylated; Construct limits may be in the supplementary Methods; also called CD45d1d2; biotinylated human CD45 domains 1 and 2; source: Expi293F cells, purified
T2 chain: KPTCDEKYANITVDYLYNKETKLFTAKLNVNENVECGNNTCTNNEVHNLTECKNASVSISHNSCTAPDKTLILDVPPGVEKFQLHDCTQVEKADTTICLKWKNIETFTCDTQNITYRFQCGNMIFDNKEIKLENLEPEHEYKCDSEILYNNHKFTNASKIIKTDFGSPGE

T1 sequence (P08575 26-1306): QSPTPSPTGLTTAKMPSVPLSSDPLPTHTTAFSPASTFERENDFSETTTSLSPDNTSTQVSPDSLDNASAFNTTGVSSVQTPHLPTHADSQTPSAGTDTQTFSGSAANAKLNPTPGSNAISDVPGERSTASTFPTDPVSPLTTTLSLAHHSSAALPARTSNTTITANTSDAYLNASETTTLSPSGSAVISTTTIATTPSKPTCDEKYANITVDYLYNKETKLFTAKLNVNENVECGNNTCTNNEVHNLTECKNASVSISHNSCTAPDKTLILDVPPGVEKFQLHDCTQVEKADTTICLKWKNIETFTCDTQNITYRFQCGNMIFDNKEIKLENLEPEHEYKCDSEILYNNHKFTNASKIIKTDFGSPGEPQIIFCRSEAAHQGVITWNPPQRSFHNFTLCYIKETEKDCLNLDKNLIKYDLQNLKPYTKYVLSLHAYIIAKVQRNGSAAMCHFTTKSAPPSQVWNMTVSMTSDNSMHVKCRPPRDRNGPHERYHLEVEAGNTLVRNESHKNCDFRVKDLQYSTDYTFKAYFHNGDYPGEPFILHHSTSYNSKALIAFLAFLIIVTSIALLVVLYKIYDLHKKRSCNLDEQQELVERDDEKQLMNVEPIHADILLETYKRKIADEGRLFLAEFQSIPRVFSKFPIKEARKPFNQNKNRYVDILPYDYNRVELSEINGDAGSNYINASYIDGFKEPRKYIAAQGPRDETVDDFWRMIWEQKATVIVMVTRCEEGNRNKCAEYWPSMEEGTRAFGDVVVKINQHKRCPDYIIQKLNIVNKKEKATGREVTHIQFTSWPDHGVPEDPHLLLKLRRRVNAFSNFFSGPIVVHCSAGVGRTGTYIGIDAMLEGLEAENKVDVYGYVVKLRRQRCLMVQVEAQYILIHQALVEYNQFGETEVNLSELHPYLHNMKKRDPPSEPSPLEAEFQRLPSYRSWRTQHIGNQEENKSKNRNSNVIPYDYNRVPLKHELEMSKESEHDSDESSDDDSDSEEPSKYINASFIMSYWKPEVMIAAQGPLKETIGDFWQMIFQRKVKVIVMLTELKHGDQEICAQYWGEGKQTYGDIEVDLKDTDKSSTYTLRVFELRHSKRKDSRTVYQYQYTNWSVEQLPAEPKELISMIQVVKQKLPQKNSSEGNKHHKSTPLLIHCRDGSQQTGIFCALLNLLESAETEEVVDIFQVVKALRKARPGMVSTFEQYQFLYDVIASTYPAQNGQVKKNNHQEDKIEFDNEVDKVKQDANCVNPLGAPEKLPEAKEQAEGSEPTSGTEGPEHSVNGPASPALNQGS

B1: anti-CD45 nanobody 2H5 with C-terminal SpyTag003 (VHH)
VHH: QVQLQESGGGLVQTGGSLTLSCVASGGTFSSYAMGWFRQAPGKEREFVAAIGGSGDSTYYADSVKGRFTISRDNAKNSVYLQMNSLKPEDTAVYYCQADPTMFHKLYYGINPNEYDYWGQGTLVTVSS
notes: constructs are in the supplementary Methods; also called 2H5 nanobody
- binding result [1]: binds
- binding result [2]: binds
